Data on three substances can be found in US20070048860A1.

Common to all, as to assay: cell-based or functional assay
In test [1] the target is murine LFA-3 (CD48) expressed on MC38 cells infected with rV-LFA-3 (murine) (UniProt P18181).
Test [2] addresses murine ICAM-1 (CD54) expressed on MC38 cells infected with rV-ICAM-1 (murine) (UniProt P13597).
In test [3] the target is murine B7-1 (CD80) expressed on MC38 cells infected with rV-B7-1 (murine) (UniProt Q00609).

In test [1], “Hamster anti-murine CD48 (BCM-1 clone HM48-1) (antibody)” had a reduction of the increased T-cell proliferation supported by MC38/LFA-3 (Con A, 3H-thymidine) of 98%.

As to “Hamster anti-murine CD54 (ICAM-1; clone 3E2) (antibody)”, in test [2], the reduction of the increased T-cell proliferation supported by MC38/ICAM-1 (Con A, 3H-thymidine) was 88%.

“Hamster anti-murine CD80 (B7-1; clone 16-10A1) (antibody)” displayed an inhibition of the increased T-cell proliferation supported by MC38/B7-1 (Con A, 3H-thymidine) in test [3] of 83%.
